Series [1] deals with the molecule itself. The experiment in a line: AUC; interference; 1, 2 and 3 x 10 μM TlpD and 3 x 28 μM TlpD(-His) in PBS (pH 7), 1 mM TCEP, 20°C, 55,000 rpm; monomer and dimer peaks integrated (SedFit); dimer to monomers.
Series [2] has as its target T1, CheW-CheA complex (4 μM CheA with 40 μM CheW) (H. pylori (G27 strain) | H. pylori (SS1 …, UniProt B5Z859 1-807; O25152 1-165).
T1 sequence 1: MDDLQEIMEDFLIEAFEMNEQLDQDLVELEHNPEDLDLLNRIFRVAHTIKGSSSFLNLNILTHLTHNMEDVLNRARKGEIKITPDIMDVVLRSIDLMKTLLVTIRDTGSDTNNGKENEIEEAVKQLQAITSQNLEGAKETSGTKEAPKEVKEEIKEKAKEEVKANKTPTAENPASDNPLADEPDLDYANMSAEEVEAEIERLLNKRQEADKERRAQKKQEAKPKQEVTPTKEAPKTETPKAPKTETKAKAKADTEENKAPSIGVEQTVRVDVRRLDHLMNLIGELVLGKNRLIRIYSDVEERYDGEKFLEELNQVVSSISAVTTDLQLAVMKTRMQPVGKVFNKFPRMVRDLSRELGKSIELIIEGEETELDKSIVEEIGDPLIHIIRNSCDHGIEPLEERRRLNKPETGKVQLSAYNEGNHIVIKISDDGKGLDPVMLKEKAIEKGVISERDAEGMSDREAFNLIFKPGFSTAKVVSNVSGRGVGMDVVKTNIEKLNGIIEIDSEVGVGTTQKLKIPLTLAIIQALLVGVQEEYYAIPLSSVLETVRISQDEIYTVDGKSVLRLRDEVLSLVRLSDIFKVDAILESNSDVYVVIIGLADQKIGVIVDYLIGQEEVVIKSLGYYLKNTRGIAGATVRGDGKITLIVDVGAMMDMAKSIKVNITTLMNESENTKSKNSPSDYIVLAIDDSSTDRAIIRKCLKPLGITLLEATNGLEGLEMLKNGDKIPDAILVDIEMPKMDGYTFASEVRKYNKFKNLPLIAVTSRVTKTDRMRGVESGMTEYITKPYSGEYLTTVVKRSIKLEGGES
T1 sequence 2: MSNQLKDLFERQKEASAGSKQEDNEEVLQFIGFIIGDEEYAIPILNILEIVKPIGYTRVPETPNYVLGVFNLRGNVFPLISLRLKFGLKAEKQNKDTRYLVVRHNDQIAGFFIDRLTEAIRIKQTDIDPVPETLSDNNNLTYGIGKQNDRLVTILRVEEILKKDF
The experiment in a line: cell-based or functional assay.

Series [3] has as its target T1, CheW-CheA complex (4 μM CheA with 40 μM …). The experiment in a line: kinase activity titration (radio-ATP labelling of CheA autophosphorylation); TlpD titrated against 4 μM CheA and 40 μM CheW, 1 mM ATP; kobs values fit to a binding isotherm; CheA-CheW complex approximated as 2 μM; kinetically defined, estimated KD; 50 mM Tris (pH 7.5), 100 mM NaCl, 10 mM MgCl2, 20°C. The conditions noted are these: both partners purified.

The target of series [4] is T2, Helicobacter pylori chemotaxis protein A (CheA), histidine kinase, recombinant (H. pylori (G27 strain), UniProt B5Z859 1-807).
T2 sequence: T1 sequence 1
The experiment in a line: cell-based or functional assay.

Series [5] deals with T2, Helicobacter pylori chemotaxis protein …. The experiment in a line: kinase activity titration (radio-ATP labelling of CheA autophosphorylation); CheW titrated against 4 μM CheA, 1 mM ATP; kobs values fit to a binding isotherm; kinetically defined, estimated KD; 50 mM Tris (pH 7.5), 100 mM NaCl, 10 mM MgCl2, 20°C. The conditions noted are these: both partners purified.

B1: Helicobacter pylori TlpD lacking the N-terminal His tag, TlpD(-His) (receptor)
chain: not shown
notes: TlpD, cytosolic chemoreceptor of H. pylori strain SS1, Uniprot A0A1U9IUC7; no limits stated; Tag cut by TEV protease; source: E. coli ArcticExpress DE3, purified (Ni-NTA, TEV protease, repurified, gel filtration)
Take B1: in series [1], binding was put at a Kd of 0.0648 µM and the “stoichiometry N” value was 2.

B2: Helicobacter pylori transducer-like protein D (TlpD), recombinant, with intact N-terminal His tag (receptor)
chain: not shown
notes: TlpD, cytosolic chemoreceptor of H. pylori strain SS1, Uniprot A0A1U9IUC7; Monomer-dimer equilibrium; copies 2 is the dimer form; also called HpTlpD; TlpD(+His); source: E. coli ArcticExpress DE3, purified (Ni-NTA, gel filtration)
In the case of B2, in series [1], the affinity, expressed as Kd, was 0.189 µM and the “stoichiometry N” value is 2. The “CheA autophosphorylation (radio-ATP labelling), titration of TlpD against 4 μM CheA and 40 μM CheW, maximal activation over CheA alone” value in series [2] amounted to 14.6 fold. For the same molecule, the Kd in series [3] was 15.2 µM.

B3: Helicobacter pylori chemotaxis protein W (CheW), recombinant (natural protein)
chain: T1 sequence 2
notes: CheW scaffold protein of H. pylori strain SS1, Uniprot A0A1U9ITT8; no limits stated; source: E. coli ArcticExpress DE3, purified (Ni-NTA, gel filtration)
With B3, in series [4], the “CheA autophosphorylation (radio-ATP labelling), titration of CheW against 4 μM CheA, maximal activation over CheA alone” value worked out at 2.7 fold. In series [5], the Kd is 14.6 µM.
